Source: publication doi:10.64898/2025.12.16.693247 (2025)

Legend:
[1] = target: RIPR EGF 9+ (L898 - N1086) (P. falciparum, UniProt O97302 898-1086, N964Q | N1021Q); assay: SPR
[2] = target: T1, full-length RIPR (RH5-interacting protein) (P. falciparum, UniProt O97302 20-1086); assay: BLI; 2:1 heterogeneous ligand fit, KD1
RIPR-Tail (D717 - N1086) [3] = target: T2, RIPR-Tail (D717 - N1086) (P. falciparum, UniProt O97302 717-1086, N964Q | N1021Q); assay: SPR; PTRAMP-CSS immobilised, steady state
[4] = target: T1, full-length RIPR (RH5-interacting …); assay: BLI; 2:1 heterogeneous ligand fit, KD2 (second site)
RIPR EGF 6+ = assay: SPR
RIPR EGF 7+ = assay: SPR
RIPR EGF 8+ = assay: SPR
RIPR-Tail (D717 - N1086) [5] = target: T2, RIPR-Tail (D717 - N1086); assay: SPR; RIPR-Tail immobilised, steady state
[6] = target: mono-biotinylated RIPR-Tail (P. falciparum, UniProt O97302 717-1086, N964Q | N1021Q, biotin on the BAP tag (mono-biotinylated by co-transfected BirA)); assay: SPR

B1: PTRAMP-CSS heterodimer (complex)
chain 1: CNLKVRNNWEHFLQVYQNNGNFKMEILEPECTIQKNLPSEEEKEEFIDFDRKELLLHDFVVIKNSQFTDEKTLELYLSKEENNKSYLMLTFYLGDLKLMIGHNSPYEISLILNVATVNKNMSNCKNNSYNIVLLKTTDVFNTSDLEILEGPIQFSLGKSSGAFRINVTNFFLNNTWKAFTKDKISFLIKPEENCYTILENKINKPQLLIEKKTTFYSEWGEWSNCSMDCDHPDNVQIRERECIHPSGDCFKGDLKESRPCIIPLPPCNELFSHKDNST
chain 2: QDEKSVKNICVCDFTDKLNFLPLEKTKILCELKPQYGEDIKIIANKEYEINCMNNSKVFCPLKDTFINNTNIKLYSPKLHFEIKDITHKGKNAALYYLKIDEEASDIFFSCSIKPKQVSGLLEGEVRVNLKKHINEEYSIFNEEEDVHVCDFSKGNLDITPSAGFYLKNSRNVSCIYRVIPNKLFLIKLPKLDIVTEKLLPSIVNCLSEFSFINFTLKHVQEGDNYISFNVIFGEFKKHFNLTCSLDLSDFQQEPCNLGKTANITFIFSK
Kd [1]: 6.44 µM | Kd [2]: 0.00113 µM | Kd (RIPR-Tail (D717 - N1086) [3]): 6.23 µM | Kd [4]: 0.176 µM | Kd (RIPR EGF 6+): 5.15 µM | Kd (RIPR EGF 7+): 2.35 µM | Kd (RIPR EGF 8+): 3.55 µM | Kd (RIPR-Tail (D717 - N1086) [5]): 5.69 µM

B2: CSS (cysteine-rich small secreted protein), residues Q21-K290 (natural protein)
chain: B1 chain 2
Kd [6]: 0.95 µM
